Patent publication US20200207829

Tests used:
TMt-NLS-dCas9VP64 = target: T1, TMt-NLS-dCas9VP64
T1 chain: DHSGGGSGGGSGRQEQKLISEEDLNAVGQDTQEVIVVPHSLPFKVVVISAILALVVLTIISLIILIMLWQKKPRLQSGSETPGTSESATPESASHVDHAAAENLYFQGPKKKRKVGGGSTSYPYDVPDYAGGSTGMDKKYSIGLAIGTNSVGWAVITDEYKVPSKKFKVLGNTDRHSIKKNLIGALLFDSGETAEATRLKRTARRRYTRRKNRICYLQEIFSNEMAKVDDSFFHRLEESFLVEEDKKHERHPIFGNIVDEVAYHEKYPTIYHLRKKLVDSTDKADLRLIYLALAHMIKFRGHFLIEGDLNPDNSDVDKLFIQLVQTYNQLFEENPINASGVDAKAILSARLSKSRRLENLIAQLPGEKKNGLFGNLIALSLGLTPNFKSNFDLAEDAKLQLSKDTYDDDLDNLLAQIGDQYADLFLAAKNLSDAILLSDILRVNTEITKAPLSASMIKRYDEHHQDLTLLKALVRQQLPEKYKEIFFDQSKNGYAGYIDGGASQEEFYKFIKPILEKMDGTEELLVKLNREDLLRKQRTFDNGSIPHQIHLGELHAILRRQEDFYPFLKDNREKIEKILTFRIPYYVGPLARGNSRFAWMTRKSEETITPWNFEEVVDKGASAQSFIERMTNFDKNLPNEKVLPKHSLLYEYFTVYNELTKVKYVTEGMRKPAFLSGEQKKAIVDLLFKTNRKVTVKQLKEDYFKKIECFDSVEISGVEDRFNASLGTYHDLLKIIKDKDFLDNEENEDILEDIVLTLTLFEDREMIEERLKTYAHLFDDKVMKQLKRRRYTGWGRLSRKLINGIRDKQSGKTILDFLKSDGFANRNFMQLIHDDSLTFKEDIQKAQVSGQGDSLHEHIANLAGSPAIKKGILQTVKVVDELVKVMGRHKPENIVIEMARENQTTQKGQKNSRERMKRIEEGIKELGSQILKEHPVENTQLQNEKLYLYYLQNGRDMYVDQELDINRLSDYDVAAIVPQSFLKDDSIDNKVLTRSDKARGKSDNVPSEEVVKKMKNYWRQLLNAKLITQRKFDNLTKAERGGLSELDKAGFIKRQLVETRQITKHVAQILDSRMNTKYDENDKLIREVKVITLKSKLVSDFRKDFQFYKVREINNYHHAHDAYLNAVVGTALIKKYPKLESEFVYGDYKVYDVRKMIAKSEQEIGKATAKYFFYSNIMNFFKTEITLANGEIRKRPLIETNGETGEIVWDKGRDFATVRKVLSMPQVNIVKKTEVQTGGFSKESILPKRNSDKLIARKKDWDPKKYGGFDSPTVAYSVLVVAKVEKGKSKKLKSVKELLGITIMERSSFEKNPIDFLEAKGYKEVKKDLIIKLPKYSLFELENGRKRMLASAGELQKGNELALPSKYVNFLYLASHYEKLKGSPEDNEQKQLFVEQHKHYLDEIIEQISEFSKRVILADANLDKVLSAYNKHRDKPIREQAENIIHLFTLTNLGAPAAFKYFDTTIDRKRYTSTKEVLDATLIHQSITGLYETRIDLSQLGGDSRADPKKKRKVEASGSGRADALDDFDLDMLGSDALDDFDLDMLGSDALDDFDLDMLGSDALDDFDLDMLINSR

B1: TEV protease (protein)
chain: MHHHHHHHHHGESLFKGPRDYNPISSTICHLTNESDGHTTSLYGIGFGPFIITNKHLFRRNNGTLLVQSLHGVFKVKNTTTLQQHLIDGRDMIIIRMPKDFPPFPQKLKFREPQREERICLVTTNFQTKSMSSMVSDTSCTFPSSDGIFWKHWIQTKDGQCGSPLVSTRDGFIVGIHSASNFTNTNNYFTSVPKNFMELLTNQEAQQWVSGWRLNADSVLWGGHKVFMVKPEEPFQPVKEATQLMNRRRRP
TMt-NLS-dCas9VP64
  anti-HA immunofluorescence, localisation of dCas9-VP64: co-expression of TEV protease resulted in highly efficient release of dCas9-VP64 from the membrane tether and subsequent nuclear localization
TMt-NESΔTCS-dCas9VP64
  EYFP activation score: did not show any activity above baseline levels
